The source of these data is paper PMC4014319, “Structure of catabolite activator protein with cobalt(II) and sulfate” (Acta Crystallographica. Section F, Structural Biology …, 2014).

The series concerns the molecule itself. As to the kind of experiment: crystal structure; hanging-drop vapor diffusion, 20°C, 0.01 M CoCl2.6H2O, 0.1 M MES pH 6.5, 2.5 M ammonium sulfate; sample 0.1 mM CAP dimer, 0.05 mM DNA duplex, 0.4 mM cyclic AMP (no DNA in the crystal); space group P2(1)2(1)2, one dimer in the asymmetric unit, 1.97 Å.

B1: catabolite activator protein (CAP) (natural protein, Escherichia coli, UniProt P0ACJ8 1-210, looked up)
chain: MVLGKPQTDPTLEWFLSHCHIHKYPSKSTLIHQGEKAETLYYIVKGSVAVLIKDEEGKEMILSYLNQGDFIGELGLFEEGQERSAWVRAKTACEVAEISYKKFRQLIQVNPDILMRLSAQMARRLQVTSEKVGNLAFLDVTGRIAQTLLNLAKQPDAMTHPDGMQIKITRQEIGQIVGCSRETVGRILKMLEDQNLISAHGKTIVVYGTR
notes: crystallised with cobalt(II) and sulfate; also called cAMP–CAP
For B1, the binding result is given as “binds”.
